Source: publication PMC11214410 (iScience, 2024)

Target: T1, His-p97 F539A (human, UniProt P55072 1-806, F539A)
T1 construct: Homohexamer in the cryo-EM structure; also called F539A (D2); D2 mutant
Assay: cross-linking; purified p97 F539A (1.26 mg/mL) and its adaptor (0.66 mg/mL) in 50mM HEPES pH 7.5, 30mM KCl, 10, 50 or 100 μM DTSSP, 30 min room temperature; trypsin, LC-MS/MS
Conditions: both partners purified

T1 sequence (P55072 whole entry F539A): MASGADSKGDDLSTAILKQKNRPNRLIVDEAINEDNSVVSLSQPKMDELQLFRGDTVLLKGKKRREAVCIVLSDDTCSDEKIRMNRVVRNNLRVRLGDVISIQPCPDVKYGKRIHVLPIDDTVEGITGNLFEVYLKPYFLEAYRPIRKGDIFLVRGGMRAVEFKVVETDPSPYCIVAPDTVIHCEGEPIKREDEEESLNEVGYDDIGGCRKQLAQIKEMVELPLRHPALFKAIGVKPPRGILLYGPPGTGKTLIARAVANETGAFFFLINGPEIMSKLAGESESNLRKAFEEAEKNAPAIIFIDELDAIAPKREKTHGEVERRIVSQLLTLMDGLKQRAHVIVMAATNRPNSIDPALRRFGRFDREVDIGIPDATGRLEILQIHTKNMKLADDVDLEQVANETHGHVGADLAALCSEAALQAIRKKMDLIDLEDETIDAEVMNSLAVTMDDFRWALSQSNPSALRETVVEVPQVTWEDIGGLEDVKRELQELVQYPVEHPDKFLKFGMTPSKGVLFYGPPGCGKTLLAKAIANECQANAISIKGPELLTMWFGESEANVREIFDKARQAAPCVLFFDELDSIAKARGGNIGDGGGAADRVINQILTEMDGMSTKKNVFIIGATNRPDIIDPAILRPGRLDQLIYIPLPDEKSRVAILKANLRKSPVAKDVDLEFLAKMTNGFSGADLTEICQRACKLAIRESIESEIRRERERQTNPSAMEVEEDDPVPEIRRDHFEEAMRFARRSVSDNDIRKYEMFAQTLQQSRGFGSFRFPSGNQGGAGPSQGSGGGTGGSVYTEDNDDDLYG

binding result: binds
B1: Npl4 (untagged) (natural protein, rat, UniProt Q9ES54 1-608, looked up)
chain: MAESIIIRVQSPDGVKRITATKRETAATFLKKVAKEFGFQNNGFSVYINRNKTGEITASSSKSLHLLKIKHGDLLFLFPSSLAGPSSEMETSTSVGLKAFGAPHVVEDEIDQYLSKQDGKIYRSRDPQLCRHGPLGKCVHCVPLEPFDEDYLNHLEPPVKHMSFHAYIRKLTGGADKGKFVALENISCKIKSGCEGHLPWPNGICTKCQPSAITLNRQKYRHVDNIMFENHTVADRFLDFWRKTGNQHFGYLYGRYTEHKDIPLGIRAEVAAIYEPPQIGTQNSLELLEDPKAEVVDEIASKLGLRKVGWIFTDLVSEDTRKGTVRYSRNKDTYFLSSEECITAGDFQNKHPNICRLSPDGHFGSKFVTAVATGGPDNQVHFEGYQVSNQCMALVRDECLLPCKDAPELGYAKESSSEQYVPDVFYKDIDKFGNEITQLARPLPVEYLIIDITTTFPKDPVYTFSISQNPFPIENRDVLGETQDFHSLATYLSQNTSSVFLDTISDFHLLLFLVTNEVMPLQDSISLLLEAVRTRNEELAQTWKKSEQWATIEQLCSTVGVQLPGLHEFGAVGGSARAATSAMWACQHCTFMNQPGTGHCEMCSLPRT
notes: Npl4, untagged, expressed from pET30-Npl4; the cross-linking data were searched against rat Npl4; In the cryo-EM and cross-linking experiments Npl4 stood as part of the Ufd1/Npl4 heterodimer; source: E. coli BL21 (DE3), in lysate
